Reference: patent US20240327510A1, “DRUG FOR PREVENTING, ALLEVIATING OR TREATING MUCOSAL ADHESION AND USE THEREOF” (SHANGHAI SYNVIDA BIOTECHNOLOGY CO. LTD., priority 2021, published 2024)
Where a chain is given by its changes, count along the chain named. Names may count otherwise.

Columns and labels:
humanized Pear1 mice [1] = assay: Subcutaneous mucosal adhesion model, HE and Masson staining at wounded site; type: in vivo; conditions: 5 micrograms at the wounded site every 7 days; 14th day; versus control group
Text: Mice were anesthetized by intraperitoneal injection of pentobarbital sodium. The hair is depilated and sterilized, and the skin is excised. A thin layer of bonding agent was applied to one side of the silicone plate to fix the wound concentrically with a clamping board. Each clamping board was sutured at regular intervals with eight stitches to secure it to the intact tissue around the wound, preventing contraction of the wound edges. Sterile dressings were cut into circular shapes and attached to the silicone board for protecting the wound, preventing the animals from scratching or chewing. The anti-human Pear1 monoclonal antibody was […].
Mice were anesthetized using isoflurane, maintaining a flow of 2% isoflurane. The sterile dressings on the silicone board were peeled off (or not peeled off). Pictures were taken at the wounded sites next to the fixed position and scale bar. If necessary, sterile dressings can be reapplied. Image J was used to process the photos. The wounded area can be calculated according to the circled area by the scale.
[…] were fixed in 4% paraformaldehyde for 48 hours, after paraffin embedding, a semi-automatic rotary slicing machine (Leica; rm2235 and cm1950) was used for slicing, dewaxing is carried out at room temperature, gradient ethanol is used for rehydration, HE and Masson staining were then performed.
Subsequently, in order to detect the role of targeting Pear1 in inhibiting adhesion formation in vivo, the inventors constructed an adhesion model in humanized Pear1 mice, and at the same time instilled anti-human Pear1 monoclonal antibodies (including LF2 or hLF105) each at a dose of 5 micrograms at the wounded site, with once administration every 7 days. On the 14th day, the subcutaneous mucosal tissue at the wounded site was removed, stained with HE and Masson, and photographed under a microscope. The thickness of the subcutaneous mucosa and skin and the area of collagen were counted by Image J software for indicating the formation of adhesions.

[2] = system: subcutaneous mucosal fibroblasts; assay: TGFβ activated mucosal fibroblasts treated with antibody: hydroxyproline in supernatant and QPCR of Col7a1, ACTA2; type: cell-based, humanized Pear1 mice; conditions: 1 μg/mL antibody, 10 ng/mL TGFβ, 48 hours; versus control group
Experimental: After the treatment of starvation in cultured mucosal or subcutaneous derived fibroblasts for 12 hours, 1 μg/mL anti-human Pear1 monoclonal antibody (including LF2 antibody or hLF105 antibody) was added separately to treat the cells. After 30 minutes, 10 ng/mL TGFβ was added to treat the cells for 48 hours, then the cell supernatant was collected. The content of hydroxyproline was detected using the hydroxyproline detection kit of Nanjing Jiancheng Biology Co., Ltd. according to the instructions.
Mucosal fibroblasts in Method 5 were collected. Total mRNA was extracted by Trizol method (Invitrogen, Carlsbad, CA) according to standard protocols. Complementary DNA was synthesized using reverse transcriptase (Takara). ABI7000 Real-time PCR instrument (Life Technologies) was used to detect gene expression and the PCR primer sequences are shown in Table 5. The 18sRNA gene was used as an internal reference.
To further investigate the role of targeting Pear1 in inhibiting mucosal fibroblast activation, subcutaneous mucosal fibroblasts were isolated from humanized Pear1 mice and cultured in vitro. TGFβ activated fibroblasts were treated with anti-human Pear1 monoclonal antibodies (including LF2 or hLF105) for 48 hours, and the supernatants were collected to detect the content of hydroxyproline. The cells were collected for QPCR to detect the expression levels of extracellular matrix proteins such as collagen 7a1 (Col 7a1) and smooth muscle actin a2 (ACTA2) to characterize fibroblast activation and collagen synthesis.

humanized Pear1 mice [3] = assay: Peritoneal adhesion model, indicators related to adhesion (immunohistochemistry or RT-PCR); type: in vivo; conditions: versus control group
Text: (§1) The model was made in humanized mice within 3 cm from the caecums of vermiform in peritoneal cavity, following the methods in the literature (Zhiliang Zhang, et al., Characteristics of genesis and development of peritoneal adhesion by different causes: experiment with rats, Chinese Journal of Medicine, 2005). The mice were divided into 3 groups. groups, with 20 mice in each group: A, control group with normal saline; B, prophylactic intraperitoneal injection of anti-human Pear1 monoclonal antibody (including LF2 or hLF105 antibody) 0.5 mg/kg, once a week; C, prophylactic intraperitoneal injection of anti-human Pear1 monoclonal antibody 1 mg/kg, once a week. After the mice were euthanized at 2 time points of 2 weeks and 4 weeks, an inverted “U”-shaped incision was selected to enter the abdomen, avoiding the original surgical incision. […] And the degree of adhesion in the peritoneal adhesion model was evaluated.
(§2) For fibroblast-specific Pear1 knockout mice, a peritoneal adhesion model was used to form a sham operation on the mice. The model preparation and animal grouping were as described above.
Immunohistochemistry or RT-PCR was used to measure some indicators related to adhesion formation to reflect the severity of adhesion, such as: fibrinogen (FIB), α-smooth actin (α-SMA), MMPs/TIMPs, transforming growth factor (TGF-β1), vascular endothelial growth factor (VEGF).

humanized Pear1 mice [4] = assay: Peritoneal adhesion model, BhatiaDS score; type: in vivo; design: key to BhatiaDS score: grade 0: no adhesion; grade I: adhesive area of the area treated in the caecums of vermiform/total area of the treated area<50%, easy for blunt separation; grade II: above-mentioned area ratio≥50%, easy for blunt dissection; Grade III: Regardless of the size of the adhesive area, as long as the adhesion is difficult to separate, blunt separation can still be performed, but the intestinal wall is obviously damaged after separation; Grade IV: Regardless of the size of the adhesive area, as long as the adhesion is firm and can no longer be bluntly separated, required sharp separation; conditions: for BhatiaDS score compared with the control group: versus control group, especially in the high-dose group (1.0 mg/kg)
Text: The model was made in humanized mice within 3 cm from the caecums of vermiform in peritoneal cavity, following the methods in the literature (Zhiliang Zhang, et al., Characteristics of genesis and development of peritoneal adhesion by different causes: experiment with rats, Chinese Journal of Medicine, 2005). The mice were divided into 3 groups. groups, with 20 mice in each group: A, control group with normal saline; B, prophylactic intraperitoneal injection of anti-human Pear1 monoclonal antibody (including LF2 or hLF105 antibody) 0.5 mg/kg, once a week; C, prophylactic intraperitoneal injection of anti-human Pear1 monoclonal antibody 1 mg/kg, once a week. After the mice were euthanized at 2 time points of 2 weeks and 4 weeks, an inverted “U”-shaped incision was selected to enter the abdomen, avoiding the original surgical incision. […] And the degree of adhesion in the peritoneal adhesion model was evaluated. […]
According to the scoring standard of BhatiaDS, grade 0: no adhesion; grade I: adhesive area of the area treated in the caecums of vermiform/total area of the treated area<50%, easy for blunt separation; grade II: above-mentioned area ratio≥50%, easy for blunt dissection; Grade III: Regardless of the size of the adhesive area, as long as the adhesion is difficult to separate, blunt separation can still be performed, but the intestinal wall is obviously damaged after separation; Grade IV: Regardless of the size of the adhesive area, as long as the adhesion is firm and can no longer be bluntly separated, required sharp separation. Each mouse was scored by 3 people respectively, and the average value was taken as the score of adhesion in this sample.

humanized Pear1 mice [5] = assay: Peritoneal adhesion model, determination of hydroxyproline in tissues; type: in vivo; conditions: versus control group
Text: as §1, §2
The formation of tissue adhesion depends on the synthesis of collagen and hydroxyproline is the precursor of collagen synthesis. […]

[6] = 0.5 mg/kg intraperitoneal once a week, 2 weeks (n = 8)
[7] = 0.5 mg/kg intraperitoneal once a week, 4 weeks (n = 8)
[8] = 1.0 mg/kg intraperitoneal once a week, 2 weeks (n = 8)
[9] = 1.0 mg/kg intraperitoneal once a week, 4 weeks (n = 8)

B1: hLF105: humanized anti-human Pear1 antibody; VH SEQ ID NO: 8, VL SEQ ID NO: 22 (antibody, V domains shown)
VH: QVQLVQSGAEVKKPGASVKVSCKASGYTFTGYPMNWVRQAPGKRLEWMGVINPYNGGTSYNQKFKGRATLTVDTSASTAYMELSSLRSEDTAVYYCARGGVRPFAYWGQGTLVTVSS
VL: DIQMTQSPSSLSASVGDRVTITCKASEDIYNRLAWYQQKPGKAPKLLISGATSLETGVPSRFSGSGSGNDFTLTISSLQPEDFATYYCQQYWSTPTFGQGTKLEIK
collagen deposition in the subcutaneous mucosa at wounded sites (Masson staining) (humanized Pear1 mice [1]): less collagen deposition | dermal thickness at wounded sites (HE staining) (humanized Pear1 mice [1]): smaller dermal thickness | fibroblasts at wounded sites (HE staining) (humanized Pear1 mice [1]): fewer fibroblasts | ability to synthesize extracellular matrix [2]: inhibited | activation of fibroblasts [2]: inhibited | indicators related to adhesion (FIB, α-SMA, MMPs/TIMPs, TGF-β1, VEGF) (humanized Pear1 mice [3]): significantly lower | BhatiaDS score (humanized Pear1 mice [4]; [6]): II (grade II: above-mentioned area ratio≥50%, easy for blunt dissection) | BhatiaDS score (humanized Pear1 mice [4]; [7]): I (grade I: adhesive area of the area treated in the caecums of vermiform/total area of the treated area<50%, easy for blunt separation) | BhatiaDS score (humanized Pear1 mice [4]; [8]): III | BhatiaDS score (humanized Pear1 mice [4]; [9]): II (grade II: above-mentioned area ratio≥50%, easy for blunt dissection) | BhatiaDS score compared with the control group (humanized Pear1 mice [4]): significantly lower | hydroxyproline content in tissues (humanized Pear1 mice [5]): significantly lower

B2: hLF110: humanized anti-human Pear1 antibody; VH SEQ ID NO: 9, VL SEQ ID NO: 23 (antibody, V domains shown)
VH: B1 VH with K43Q, R44N, A68V, T74K
VL: B1 VL with K42N
BhatiaDS score (humanized Pear1 mice [4]; [6]): I (grade I: adhesive area of the area treated in the caecums of vermiform/total area of the treated area<50%, easy for blunt separation) | BhatiaDS score (humanized Pear1 mice [4]; [7]): 0 | BhatiaDS score (humanized Pear1 mice [4]; [8]): III | BhatiaDS score (humanized Pear1 mice [4]; [9]): I (grade I: adhesive area of the area treated in the caecums of vermiform/total area of the treated area<50%, easy for blunt separation)

B3: hLF-N55Q: humanized anti-human Pear1 antibody; VH SEQ ID NO: 13, VL SEQ ID NO: 22 (antibody, V domains shown)
VH: B1 VH with N55Q
VL: B1 VL
BhatiaDS score (humanized Pear1 mice [4]; [6]): II (grade II: above-mentioned area ratio≥50%, easy for blunt dissection) | BhatiaDS score (humanized Pear1 mice [4]; [7]): I (grade I: adhesive area of the area treated in the caecums of vermiform/total area of the treated area<50%, easy for blunt separation) | BhatiaDS score (humanized Pear1 mice [4]; [8]): III | BhatiaDS score (humanized Pear1 mice [4]; [9]): I (grade I: adhesive area of the area treated in the caecums of vermiform/total area of the treated area<50%, easy for blunt separation)

B4: hLF107: humanized anti-human Pear1 antibody; VH SEQ ID NO: 8, VL SEQ ID NO: 24 (antibody, V domains shown)
VH: B1 VH
VL: B1 VL with F71Y
BhatiaDS score (humanized Pear1 mice [4]; [6]): II (grade II: above-mentioned area ratio≥50%, easy for blunt dissection) | BhatiaDS score (humanized Pear1 mice [4]; [7]): I (grade I: adhesive area of the area treated in the caecums of vermiform/total area of the treated area<50%, easy for blunt separation) | BhatiaDS score (humanized Pear1 mice [4]; [8]): IV | BhatiaDS score (humanized Pear1 mice [4]; [9]): II (grade II: above-mentioned area ratio≥50%, easy for blunt dissection)

B5: LF2: anti-human Pear1 monoclonal antibody; VH SEQ ID NO: 1, VL SEQ ID NO: 16 (antibody, V domains shown)
VH: EVQLQQSGPELVKPGASMKISCKASGYSFTGYPMNWVRQSHVKNLEWIGVINPYNGGTSYNQKFKGKATLTVDKSSSTAYIELLSLTSDDSAVYYCARGGVRPFAYWGQGTLVTVSA
VL: DIQMTQTSSSFSVSLGDRVTITCKASEDIYNRLAWYQQKPGNAPRLLISGATSLETGVPSRFSGSGSGNDYTLSITSLQTEDVATYYCQQYWSTPTFGAGTKLELQ
collagen deposition in the subcutaneous mucosa at wounded sites (Masson staining) (humanized Pear1 mice [1]): less collagen deposition | dermal thickness at wounded sites (HE staining) (humanized Pear1 mice [1]): smaller dermal thickness | fibroblasts at wounded sites (HE staining) (humanized Pear1 mice [1]): fewer fibroblasts | ability to synthesize extracellular matrix [2]: inhibited | activation of fibroblasts [2]: inhibited | indicators related to adhesion (FIB, α-SMA, MMPs/TIMPs, TGF-β1, VEGF) (humanized Pear1 mice [3]): significantly lower | BhatiaDS score (humanized Pear1 mice [4]; [6]): I (grade I: adhesive area of the area treated in the caecums of vermiform/total area of the treated area<50%, easy for blunt separation) | BhatiaDS score (humanized Pear1 mice [4]; [8]): III | BhatiaDS score (humanized Pear1 mice [4]; [9]): I (grade I: adhesive area of the area treated in the caecums of vermiform/total area of the treated area<50%, easy for blunt separation) | BhatiaDS score compared with the control group (humanized Pear1 mice [4]): significantly lower | hydroxyproline content in tissues (humanized Pear1 mice [5]): significantly lower
